Source: the supplement of paper PMC6757056
± gives the standard deviation of the averaged measurements.

B1: library; a variant is named by its letters at N, in order (parent)
chain: GCUGUCACCGAGAAACUGUGAAGUAUAUCUUAAACCUGGGCACUUAAAAGAUAUAUGGAGUUAGUAGUGCAACCUGCUCGGUCUGAUGAGUCCNNNNNNGGACGAAACAGC

Key:
cyclic di-GMP [1] = variants of: B1; assay: normalized RNA/DNA level without ligand (relative to sTRSVctl = 100) (log10 (% of sTRSVctl)); HEK293T; ligand: cyclic di-GMP (c-di-GMP-II aptamer); higher = less ribozyme self-cleavage, higher mRNA level; settings: reporter: mCherry (pCS4076), ligand present: no
In short: (§1)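 For each 6-well well, 4 µg of library plasmid encoding mCherry-linked ribozyme switches, or eGFP-linked ones in some ligand experiments, was transfected into HEK293T. Any ligand was added 1 h before transfection, and RNA was extracted with EDTA 72 h after it, then reverse-transcribed, amplified, barcoded and sequenced. RNA level was obtained by dividing RNA reads by DNA reads, normalizing to a spiked-in non-cleaving sequence or to the top sequences, then scaling and log-transforming. The top set was 25 sequences, scaling was ×100 with log10, and ≥100 DNA reads were required.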

cyclic di-GMP [2] = variants of: B1; assay: normalized RNA/DNA level with ligand (relative to sTRSVctl = 100) (log10 (% of sTRSVctl)); HEK293T; ligand: cyclic di-GMP (c-di-GMP-II aptamer); ligand concentration (+) RNA-Seq: 1 mM; higher = less ribozyme self-cleavage, higher mRNA level; settings: reporter: mCherry (pCS4076), ligand present: yes
In short: as §1

Variant | normalized RNA/DNA level without ligand (log10) (cyclic di-GMP [1]) | normalized RNA/DNA level with ligand (log10) (cyclic di-GMP [2])
CACUCG | 1.82 ± 0.042 | 1.87 ± 0.11
GUUAUU | 1.679 ± 0.0041 | 1.83 ± 0.11
UUCAGG | 1.82 ± 0.048 | 1.88 ± 0.12
AAUAAC | 1.634 ± 0.013 | 1.8 ± 0.092
AAUAAG | 1.52 ± 0.064 | 1.7 ± 0.096
AGACGG | 1.62 ± 0.088 | 1.78 ± 0.089
ACUAGG | 1.52 ± 0.071 | 1.7 ± 0.066
CUGAGC | 1.76 ± 0.033 | 1.87 ± 0.12
ACAGAC | 1.49 ± 0.056 | 1.71 ± 0.049
CCCGCA | 1.66 ± 0.037 | 1.8 ± 0.08
AAAUUU | 1.67 ± 0.067 | 1.82 ± 0.17
AUCACA | 1.64 ± 0.069 | 1.8 ± 0.062
GCCAAC | 1.51 ± 0.086 | 1.66 ± 0.056
AUGCAC | 1.714 ± 0.0048 | 1.86 ± 0.081
UAUACC | 1.76 ± 0.053 | 1.86 ± 0.1
UAUACA | 1.711 ± 0.0027 | 1.85 ± 0.12
GAUCAG | 1.8 ± 0.054 | 1.9 ± 0.13
GGGACU | 1.68 ± 0.031 | 1.83 ± 0.056
CUCCCC | 1.82 ± 0.032 | 1.9 ± 0.089
CGGCGG | 1.68 ± 0.059 | 1.81 ± 0.077
UGCACC | 1.74 ± 0.036 | 1.84 ± 0.14
UGCACG | 1.801 ± 0.014 | 1.91 ± 0.14
CGCAUC | 1.66 ± 0.037 | 1.83 ± 0.11
CCACUC | 1.7 ± 0.022 | 1.8 ± 0.1

Variant | normalized RNA/DNA level without ligand (log10) (cyclic di-GMP [1]) | normalized RNA/DNA level with ligand (log10) (cyclic di-GMP [2])
CUUCUU | 1.5858 ± 0.00043 | 1.75 ± 0.2
CAUAGC | 1.73 ± 0.062 | 1.84 ± 0.13
AGGGUC | 1.71 ± 0.07 | 1.85 ± 0.18
AUGGUU | 1.46 ± 0.03 | 1.68 ± 0.1
AGAGAC | 1.56 ± 0.035 | 1.69 ± 0.088
AUCGCA | 1.65 ± 0.018 | 1.77 ± 0.12
CUAACA | 1.662 ± 0.0013 | 1.78 ± 0.09
CCUGCG | 1.8 ± 0.026 | 1.88 ± 0.13
UGUUUU | 1.71 ± 0.032 | 1.86 ± 0.11
CCCUAC | 1.71 ± 0.026 | 1.82 ± 0.1
ACUGCC | 1.744 ± 0.016 | 1.88 ± 0.12
UACGAU | 1.63 ± 0.046 | 1.8 ± 0.15
ACCAGC | 1.63 ± 0.064 | 1.77 ± 0.079
AUUAGU | 1.686 ± 0.01 | 1.83 ± 0.11
GGCUGU | 1.68 ± 0.05 | 1.79 ± 0.18
UCCGCC | 1.75 ± 0.076 | 1.89 ± 0.11
UCCAUA | 1.53 ± 0.033 | 1.74 ± 0.13
CACUAC | 1.64 ± 0.037 | 1.77 ± 0.11
AGACCC | 1.79 ± 0.096 | 1.87 ± 0.18
AGUUUG | 1.65 ± 0.088 | 1.77 ± 0.096
AAGUAU | 1.62 ± 0.032 | 1.8 ± 0.095
GCUAGG | 1.54 ± 0.12 | 1.7 ± 0.062
GCGAGG | 1.613 ± 0.016 | 1.75 ± 0.16
GCGAGA | 1.41 ± 0.14 | 1.63 ± 0.073

Variant | normalized RNA/DNA level without ligand (log10) (cyclic di-GMP [1]) | normalized RNA/DNA level with ligand (log10) (cyclic di-GMP [2])
ACUUUG | 1.59 ± 0.037 | 1.76 ± 0.12
AAGCGU | 1.56 ± 0.021 | 1.73 ± 0.11
GAAUCA | 1.638 ± 0.0066 | 1.82 ± 0.1
UUCGAG | 1.6344 ± 1.3e-05 | 1.81 ± 0.14
UUCCAC | 1.7863 ± 0.00044 | 1.88 ± 0.13
AGCGCA | 1.661 ± 0.005 | 1.78 ± 0.12
CAAGCC | 1.76 ± 0.022 | 1.85 ± 0.087
GCACGU | 1.49 ± 0.07 | 1.7 ± 0.12
AAUACA | 1.56 ± 0.017 | 1.74 ± 0.1
UGGACA | 1.712 ± 0.0091 | 1.83 ± 0.11
AUCCAU | 1.65 ± 0.048 | 1.81 ± 0.088
UGCGUG | 1.71 ± 0.084 | 1.9 ± 0.096
UGCGUC | 1.75 ± 0.019 | 1.85 ± 0.13
CUCCAU | 1.58 ± 0.035 | 1.82 ± 0.057
CGCGUC | 1.77 ± 0.062 | 1.88 ± 0.15
ACGCAU | 1.42 ± 0.15 | 1.68 ± 0.075
UGCUAA | 1.695 ± 0.0079 | 1.87 ± 0.09
GCGAUG | 1.59 ± 0.06 | 1.79 ± 0.096
AUACCU | 1.7 ± 0.054 | 1.85 ± 0.046
CGGUAG | 1.731 ± 0.0046 | 1.84 ± 0.038
GCAAGA | 1.33 ± 0.12 | 1.54 ± 0.1
UAUGGC | 1.708 ± 0.015 | 1.82 ± 0.12
GUAUAU | 1.6 ± 0.031 | 1.75 ± 0.11
GUAUAC | 1.661 ± 0.0097 | 1.81 ± 0.084

Variant | normalized RNA/DNA level without ligand (log10) (cyclic di-GMP [1]) | normalized RNA/DNA level with ligand (log10) (cyclic di-GMP [2])
ACACCU | 1.63 ± 0.031 | 1.81 ± 0.078
ACACCA | 1.59 ± 0.029 | 1.76 ± 0.11
AACCCG | 1.665 ± 0.014 | 1.81 ± 0.06
UUGAAC | 1.691 ± 0.0046 | 1.82 ± 0.11
CAAUAG | 1.73 ± 0.024 | 1.83 ± 0.14
CACGAC | 1.67 ± 0.053 | 1.83 ± 0.13
ACCCCU | 1.74 ± 0.036 | 1.86 ± 0.076
GCCAGA | 1.48 ± 0.05 | 1.68 ± 0.1
UGACAG | 1.712 ± 0.0029 | 1.82 ± 0.097
CCUAAU | 1.53 ± 0.042 | 1.73 ± 0.14
CCUCGG | 1.838 ± 0.011 | 1.94 ± 0.025
UCUCCA | 1.758 ± 0.012 | 1.85 ± 0.12
AUCGAU | 1.56 ± 0.076 | 1.77 ± 0.063
ACAUAU | 1.45 ± 0.097 | 1.64 ± 0.14
UUAAUU | 1.76 ± 0.072 | 1.88 ± 0.12
GAUCUA | 1.67 ± 0.032 | 1.81 ± 0.097
GUGCAC | 1.729 ± 0.0059 | 1.83 ± 0.17
GAUACC | 1.758 ± 0.0066 | 1.89 ± 0.066
CCCCCC | 1.82 ± 0.043 | 1.93 ± 0.12
GCCUUU | 1.69 ± 0.051 | 1.88 ± 0.14
UAGCCG | 1.79 ± 0.063 | 1.93 ± 0.12
UAGCCA | 1.71 ± 0.04 | 1.86 ± 0.1
CCUAUU | 1.56 ± 0.048 | 1.71 ± 0.097
CAGUGC | 1.71 ± 0.05 | 1.81 ± 0.11

Variant | normalized RNA/DNA level without ligand (log10) (cyclic di-GMP [1]) | normalized RNA/DNA level with ligand (log10) (cyclic di-GMP [2])
AUGUUU | 1.56 ± 0.034 | 1.77 ± 0.15
CUCCUC | 1.76 ± 0.026 | 1.87 ± 0.11
UCUACA | 1.71 ± 0.025 | 1.86 ± 0.16
UCGUUA | 1.44 ± 0.076 | 1.63 ± 0.051
UCGUUG | 1.61 ± 0.14 | 1.83 ± 0.096
ACGACA | 1.52 ± 0.087 | 1.74 ± 0.085
ACGACU | 1.51 ± 0.085 | 1.73 ± 0.14
CCACAG | 1.54 ± 0.028 | 1.75 ± 0.18
UGUGGU | 1.667 ± 0.012 | 1.81 ± 0.065
UCGUCC | 1.794 ± 0.01 | 1.9 ± 0.081
GCUUGC | 1.77 ± 0.057 | 1.87 ± 0.17
UGGCCA | 1.79 ± 0.029 | 1.86 ± 0.12
UUCGGU | 1.75 ± 0.029 | 1.87 ± 0.056
UAGUAC | 1.68 ± 0.037 | 1.8 ± 0.12
UUGCUA | 1.62 ± 0.052 | 1.81 ± 0.07
GUCCAU | 1.66 ± 0.054 | 1.83 ± 0.14
GGCUUG | 1.64 ± 0.062 | 1.851 ± 0.0082
GAUUCA | 1.72 ± 0.021 | 1.85 ± 0.064
GAUUCU | 1.748 ± 0.014 | 1.86 ± 0.12
AUGCCC | 1.79 ± 0.051 | 1.82 ± 0.14
